Positions count from the first letter of the chain named. Numbers in names are those of the source. Read-outs that look alike come from different tables or passages of the source.
Legend:
[1] = target: T1, CS1-Fc (UniProt Q9NQ25 23-226); test: ELISA
T1 chain: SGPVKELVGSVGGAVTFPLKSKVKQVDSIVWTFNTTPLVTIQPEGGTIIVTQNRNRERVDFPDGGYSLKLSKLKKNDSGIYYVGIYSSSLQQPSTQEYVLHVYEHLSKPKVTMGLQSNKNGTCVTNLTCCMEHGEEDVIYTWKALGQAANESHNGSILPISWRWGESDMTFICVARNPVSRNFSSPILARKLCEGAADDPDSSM

[2] = target: T2, CD38 naturally expressed on Daudi cells (human, UniProt P28907 1-300); test: FACS; FIG. 23
[3] = target: T2, CD38 naturally expressed on Daudi cells; test: FACS; FIG. 24
[4] = target: T3, CD33 naturally expressed on HL60 cells (human, UniProt P20138 18-364); test: FACS
[5] = target: T3, CD33 naturally expressed on HL60 cells; test: FACS; remark: listed apart in the source

T3 sequence (P20138 18-364): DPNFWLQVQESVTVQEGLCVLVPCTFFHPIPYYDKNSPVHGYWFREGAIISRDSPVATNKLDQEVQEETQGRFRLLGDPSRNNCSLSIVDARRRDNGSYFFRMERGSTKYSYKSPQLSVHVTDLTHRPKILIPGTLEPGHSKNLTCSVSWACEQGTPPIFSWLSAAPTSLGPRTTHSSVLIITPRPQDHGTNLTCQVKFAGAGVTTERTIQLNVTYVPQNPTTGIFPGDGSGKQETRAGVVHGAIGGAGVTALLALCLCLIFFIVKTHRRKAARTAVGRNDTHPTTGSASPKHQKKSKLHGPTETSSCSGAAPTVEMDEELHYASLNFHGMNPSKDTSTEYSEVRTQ

B1: QP344944564368 (antibody)
chain 1: not shown
chain 2: MEFGLSWLFLVAILKGVQCEVQLVESGGGLVQPGGSLRLSCAASGFDFSRYWMSWVRQAPGKGLEWIGEINPDSSTINYAPSLKDKFIISRDNAKNSLYLQMNSLRAEDTAVYYCARPDGNYWYFDVWGQGTLVTVSSASTKGPSVFPLAPSSKSTSGGTAALGCLVKDYFPEPVTVSWNSGALTSGVHTFPAVLQSSGLYSLSSVVTVPSSSLGTQTYICNVNHKPSNTKVDKKVEPKSCDKTHTCPPCPAPEAAGGPSVFLFPPKPKDTLMISRTPEVTCVVVDVSHEDPEVKFNWYVDGVEVHNAKTKPREEQYNSTYRVVSVLTVLHQDWLNGKEYKCKVSNKALPAPIEKTISKAKGQPREPQVYTLPPSREEMTKNQVSLSCAVKGFYPSDIAVEWESNGQPENNYKTTPPVLDSDGSFFLVSKLTVDKSRWQQGNVFSCSVMHEALHNRYTQKSLSLSPGKGGSHHHHHH
chain 3: MDMRVPAQLLGLLLLWFPGSRCDIQMTQSPSSLSASVGDRVTITCKASQDVGIAVAWYQQKPGKVPKLLIYWASTRHTGVPDRFSGSGSGTDFTLTISSLQPEDVATYYCQQYSSYPYTFGQGTKVEIKRTVAAPSVFIFPPSDEQLKSGTASVVCLLNNFYPREAKVQWKVDNALQSGNSQESVTEQDSKDSTYSLSSTLTLSKADYEKHKVYACEVTHQGLSSPVTKSFNRGEC
EC50 [1]: 5.24 µg/mL

B2: QP42764325 (antibody)
chain 1: DIQMTQSPSSLSASVGDRVTITCKASQDVGIAVAWYQQKPGKVPKLLIYWASTRHTGVPDRFSGSGSGTDFTLTISSLQPEDVATYYCQQYSSYPYTFGQGTKVEIKRTVAAPSVFIFPPSDEQLKSGTASVVCLLNNFYPREAKVQWKVDNALQSGNSQESVTEQDSKDSTYSLSSTLTLSKADYEKHKVYACEVTHQGLSSPVTKSFNRGEC
chain 2: EVQLVESGGGLVQPGGSLRLSCAASGFDFSRYWMSWVRQAPGKGLEWIGEINPDSSTINYAPSLKDKFIISRDNAKNSLYLQMNSLRAEDTAVYYCARPDGNYWYFDVWGQGTLVTVSSASTKGPSVFPLAPSSKSTSGGTAALGCLVKDYFPEPVTVSWNSGALTSGVHTFPAVLQSSGLYSLSSVVTVPSSSLGTQTYICNVNHKPSNTKVDKKVEPKSCDKTHTCPPCPAPEAAGGPSVFLFPPKPKDTLMISRTPEVTCVVVDVSHEDPEVKFNWYVDGVEVHNAKTKPREEQYNSTYRVVSVLTVLHQDWLNGKEYKCKVSNKALPAPIEKTISKAKGQPREPQVYTLPPSREEMTKNQVSLSCAVKGFYPSDIAVEWESNGQPENNYKTTPPVLDSDGSFFLVSKLTVDKSRWQQGNVFSCSVMHEALHNRYTQKSLSLSPGK
chain 3: not shown
chain 4: not shown
EC50 [2]: 10.2 nM
EC50 [3]: 8.56 nM

B3: CD33/CD16A/IL-15 trifunctional fusion protein QP42914285 (FC with L234A/L235A mutation for eliminating function) (bispecific antibody)
light: SYVLTQPSSVSVAPGQTATISCGGHNIGSKNVHWYQQRPGQSPVLVIYQDNKRPSGIPERFSGSNSGNTATLTISGTQAMDEADYYCQVWDNYSVLFGGGTKLTVLRTVAAPSVFIFPPSDEQLKSGTASVVCLLNNFYPREAKVQWKVDNALQSGNSQESVTEQDSKDSTYSLSSTLTLSKADYEKHKVYACEVTHQGLSSPVTKSFNRGEC
heavy: QVQLVQSGAEVKKPGESLKVSCKASGYTFTSYYMHWVRQAPGQGLEWMGIINPSGGSTSYAQKFQGRVTMTRDTSTSTVYMELSSLRSEDTAVYYCARGSAYYYDFADYWGQGTLVTVSSASTKGPSVFPLAPSSKSTSGGTAALGCLVKDYFPEPVTVSWNSGALTSGVHTFPAVLQSSGLYSLSSVVTVPSSSLGTQTYICNVNHKPSNTKVDKKVEPKSCDKTHTCPPCPAPEAAGGPSVFLFPPKPKDTLMISRTPEVTCVVVDVSHEDPEVKFNWYVDGVEVHNAKTKPREEQYNSTYRVVSVLTVLHQDWLNGKEYKCKVSNKALPAPIEKTISKAKGQPREPQVYTLPPSREEMTKNQVSLSCAVKGFYPSDIAVEWESNGQPENNYKTTPPVLDSDGSFFLVSKLTVDKSRWQQGNVFSCSVMHEALHNRYTQKSLSLSPGKGGSHHHHHH
chain 1: not shown
chain 2: not shown
EC50 [4]: 3.08 nM
EC50 [5]: 4.51 nM

B4: QP34483449 (antibody, V domains shown)
VH: EVQLVESGGGLVQPGGSLRLSCAASGFDFSRYWMSWVRQAPGKGLEWIGEINPDSSTINYAPSLKDKFIISRDNAKNSLYLQMNSLRAEDTAVYYCARPDGNYWYFDVWGQGTLVTVSS
VL: MDMRVPAQLLGLLLLWFPGSRCDIQMTQSPSSLSASVGDRVTITCKASQDVGIAVAWYQQKPGKVPKLLIYWASTRHTGVPDRFSGSGSGTDFTLTISSLQPEDVATYYCQQYSSYPYTFGQGTKVEIKR
EC50 [3]: 18.4 nM

B5: QP43354336 (antibody, V domains shown)
VH: QVQLVQSGAEVKKPGESLKVSCKASGYTFTSYYMHWVRQAPGQGLEWMGIINPSGGSTSYAQKFQGRVTMTRDTSTSTVYMELSSLRSEDTAVYYCARGSAYYYDFADYWGQGTLVTVSS
VL: MDMRVPAQLLGLLLLWFPGSRCSYVLTQPSSVSVAPGQTATISCGGHNIGSKNVHWYQQRPGQSPVLVIYQDNKRPSGIPERFSGSNSGNTATLTISGTQAMDEADYYCQVWDNYSVLFGGGTKLTVLR
EC50 [5]: 21.4 nM
EC50 [3]: ~0.289 nM

B6: CS1/CD16A/IL-15 trifunctional fusion protein QP43394342 (FC with L234A/L235A mutation for eliminating function) (bispecific antibody)
chain 1: not shown
chain 2: not shown
light: B2 chain 1
heavy: EVQLVESGGGLVQPGGSLRLSCAASGFDFSRYWMSWVRQAPGKGLEWIGEINPDSSTINYAPSLKDKFIISRDNAKNSLYLQMNSLRAEDTAVYYCARPDGNYWYFDVWGQGTLVTVSSASTKGPSVFPLAPSSKSTSGGTAALGCLVKDYFPEPVTVSWNSGALTSGVHTFPAVLQSSGLYSLSSVVTVPSSSLGTQTYICNVNHKPSNTKVDKKVEPKSCDKTHTCPPCPAPEAAGGPSVFLFPPKPKDTLMISRTPEVTCVVVDVSHEDPEVKFNWYVDGVEVHNAKTKPREEQYNSTYRVVSVLTVLHQDWLNGKEYKCKVSNKALPAPIEKTISKAKGQPREPQVYTLPPSREEMTKNQVSLSCAVKGFYPSDIAVEWESNGQPENNYKTTPPVLDSDGSFFLVSKLTVDKSRWQQGNVFSCSVMHEALHNRYTQKSLSLSPGKGGSHHHHHH
EC50 [1]: 1.77 µg/mL

B7: CS1/CD16A/IL-15 trifunctional fusion protein QP7434262 (FC wildtype) (bispecific antibody)
chain 1: not shown
chain 2: not shown
light: B2 chain 1
heavy: B6 heavy with A236L, A237L
EC50 [1]: ~0.839 µg/mL

B8: QP42714274 (antibody)
chain 1: not shown
chain 2: EVQLLESGGGLVQPGGSLRLSCAVSGFTFNSFAMSWVRQAPGKGLEWVSAISGSGGGTYYADSVKGRFTISRDNSKNTLYLQMNSLRAEDTAVYFCAKDKILWFGEPVFDYWGQGTLVTVSSASTKGPSVFPLAPSSKSTSGGTAALGCLVKDYFPEPVTVSWNSGALTSGVHTFPAVLQSSGLYSLSSVVTVPSSSLGTQTYICNVNHKPSNTKVDKKVEPKSCDKTHTCPPCPAPEAAGGPSVFLFPPKPKDTLMISRTPEVTCVVVDVSHEDPEVKFNWYVDGVEVHNAKTKPREEQYNSTYRVVSVLTVLHQDWLNGKEYKCKVSNKALPAPIEKTISKAKGQPREPQVYTLPPSREEMTKNQVSLSCAVKGFYPSDIAVEWESNGQPENNYKTTPPVLDSDGSFFLVSKLTVDKSRWQQGNVFSCSVMHEALHNRYTQKSLSLSPGKGGSHHHHHH
chain 3: not shown
chain 4: not shown
EC50 [3]: 4.76 nM

B9: QP42764279 (antibody)
chain 1: B2 chain 1
chain 2: B2 chain 2
chain 3: not shown
chain 4: not shown
EC50 [2]: 8.99 nM
